# Patent WO2021221136A1 (dated 2021)
# Target: T1, SARS-CoV-2 S1 subunit-Fc (Fc-tagged S1 protein, The Native Antigen Company) (SARS-CoV-2, UniProt P0DTC2 14-674)
# T1 construct: domain: S1 subunit
# Test: BLI (BLItz), His-tagged CoVHH1 on Ni-NTA sensor, S1-Fc 0-693.1 nM in solution, global fitting
binder,measurement,value
"His-tagged CoVHH1 (VHH, also called CoVHH1-His; His-tagged VHH) VHH: AEVQLVESGGGQVETGGSLRLSCQASGSTFSDYVMAWFRQRPGKEREFVATISRNGGTTTYGSSVKGRFTISRDNAKSTVYLQMNSLKPEDTAVYYCYAVGGDGDSWGQGTQVTVSSEPKTPKPQSHHHHHH",Kd,7.13 nM
same,koff,0.000114 s⁻¹
same,kon,16000 M⁻¹ s⁻¹
